# According to publication PMC13016609, “UV irradiation alters TFAM binding specificity and compaction of DNA”:
# T1: TFAM (no MTS) (Homo sapiens, UniProt Q00059 43-246)
# T1 sequence: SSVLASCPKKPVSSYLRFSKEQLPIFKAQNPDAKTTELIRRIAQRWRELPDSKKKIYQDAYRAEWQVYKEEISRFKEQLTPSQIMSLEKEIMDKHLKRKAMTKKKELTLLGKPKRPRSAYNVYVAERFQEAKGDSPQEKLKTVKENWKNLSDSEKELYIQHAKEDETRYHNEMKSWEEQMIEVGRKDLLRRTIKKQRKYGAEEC
# B1: ND1_450 (dsDNA)
# DNA 1: ACTCACCCTAGCATTACTTATATGATATGTCTC
# DNA 2: GAGACATATCATATAAGTAATGCTAGGGTGAGT
# B2: ND1_450 +UVC (dsDNA)
# DNA 1: B1 DNA 1
# DNA 2: B1 DNA 2
# modifications: UVC 1500 J/m2 photolesions (positions undefined)
# B3: ND4_473 (dsDNA)
# DNA 1: CGGCGCAGTCATTCTCATAATCGCCCACGGGCT
# DNA 2: AGCCCGTGGGCGATTATGAGAATGACTGCGCCG
# B4: ND4_473 +UVC (dsDNA)
# DNA 1: B3 DNA 1
# DNA 2: B3 DNA 2
# modifications: UVC 1500 J/m2 photolesions (positions undefined)
# B5: ND1_288 (dsDNA)
# DNA 1: CTCCACACTAGCAGAGACCAACCGAACCCCCTT
# DNA 2: AAGGGGGTTCGGTTGGTCTCTGCTAGTGTGGAG
# B6: ND1_288 +UVC (dsDNA)
# DNA 1: B5 DNA 1
# DNA 2: B5 DNA 2
# modifications: UVC 1500 J/m2 photolesions (positions undefined)
# B7: ND1_353 40mer (dsDNA)
# DNA 1: CACAAACATTATTATAATAAACACCCTCACCACTACAATC
# DNA 2: GATTGTAGTGGTGAGGGTGTTTATTATAATAATGTTTGTG
# B8: ND1_353 40mer +UVC (dsDNA)
# DNA 1: B7 DNA 1
# DNA 2: B7 DNA 2
# modifications: UVC 1500 J/m2 photolesions (positions undefined)
# B9: ND3_92 (dsDNA)
# DNA 1: TTAGTAGCTATTACCTTCTTATTATTTGATCTA
# DNA 2: TAGATCAAATAATAAGAAGGTAATAGCTACTAA
# B10: ND6_87 (dsDNA)
# DNA 1: TTCCTACACTATTAAAGTTTACCACAACCACCA
# DNA 2: TGGTGGTTGTGGTAAACTTTAATAGTGTAGGAA
# B11: ND6_87 +UVC (dsDNA)
# DNA 1: B10 DNA 1
# DNA 2: B10 DNA 2
# modifications: UVC 1500 J/m2 photolesions (positions undefined)
# B12: ND1_353 (dsDNA)
# DNA 1: ATTATTATAATAAACACCCTCACCACTACAATC
# DNA 2: GATTGTAGTGGTGAGGGTGTTTATTATAATAAT
# B13: ND1_353 +UVC (dsDNA)
# DNA 1: B12 DNA 1
# DNA 2: B12 DNA 2
# modifications: UVC 1500 J/m2 photolesions (positions undefined)
# B14: COX2_229 (dsDNA)
# DNA 1: GCCCCCATTCGTATAATAATTACATCACAAGAC
# DNA 2: GTCTTGTGATGTAATTATTATACGAATGGGGGC
# B15: COX2_229 +UVC (dsDNA)
# DNA 1: B14 DNA 1
# DNA 2: B14 DNA 2
# modifications: UVC 1500 J/m2 photolesions (positions undefined)
# B16: ND2_401 (dsDNA)
# DNA 1: CAAATGGGCCATTATCGAAGAATTCACAAAAAA
# DNA 2: TTTTTTGTGAATTCTTCGATAATGGCCCATTTG
# B17: ND2_401 +UVC (dsDNA)
# DNA 1: B16 DNA 1
# DNA 2: B16 DNA 2
# modifications: UVC 1500 J/m2 photolesions (positions undefined)
# B18: TRNT_10 (dsDNA)
# DNA 1: CTTGTAGTATAAACTAATACACCAGTCTTGTAA
# DNA 2: TTACAAGACTGGTGTATTAGTTTATACTACAAG
# B19: TRNT_10 +UVC (dsDNA)
# DNA 1: B18 DNA 1
# DNA 2: B18 DNA 2
# modifications: UVC 1500 J/m2 photolesions (positions undefined)
# Key:
# [1] = target: T1, TFAM (no MTS); experiment: fluorescence anisotropy; Hill n 2.40±0.43; FP: 25 mM HEPES, 10 mM Mg(OAc)2, 25 mM NaOAc, 75 mM KOAc, pH 7.5, 1 nM DNA, TFAM 0-15 nM diluted on ice (read temperature not stated); AFM oligos: on ice, 2 min; conditions: protein: recombinant; label: 5' 6-FAM on strand 1; blunt
# [2] = target: T1, TFAM (no MTS); experiment: fluorescence anisotropy; +UVC; Hill n 2.20±0.13; FP: 25 mM HEPES, 10 mM Mg(OAc)2, 25 mM NaOAc, 75 mM KOAc, pH 7.5, 1 nM DNA, TFAM 0-15 nM diluted on ice (read temperature not stated); AFM oligos: on ice, 2 min; conditions: protein: recombinant; label: 5' 6-FAM on strand 1; blunt
# [3] = target: T1, TFAM (no MTS); experiment: fluorescence anisotropy; Hill n 5.06±0.09; FP: 25 mM HEPES, 10 mM Mg(OAc)2, 25 mM NaOAc, 75 mM KOAc, pH 7.5, 1 nM DNA, TFAM 0-15 nM diluted on ice (read temperature not stated); AFM oligos: on ice, 2 min; conditions: protein: recombinant; label: 5' 6-FAM on strand 1 (FP); blunt
# [4] = target: T1, TFAM (no MTS); experiment: fluorescence anisotropy; +UVC; Hill n 4.76±0.11; FP: 25 mM HEPES, 10 mM Mg(OAc)2, 25 mM NaOAc, 75 mM KOAc, pH 7.5, 1 nM DNA, TFAM 0-15 nM diluted on ice (read temperature not stated); AFM oligos: on ice, 2 min; conditions: protein: recombinant; label: 5' 6-FAM on strand 1; blunt
# [5] = target: T1, TFAM (no MTS); experiment: fluorescence anisotropy; Hill n 3.04±0.19; FP: 25 mM HEPES, 10 mM Mg(OAc)2, 25 mM NaOAc, 75 mM KOAc, pH 7.5, 1 nM DNA, TFAM 0-15 nM diluted on ice (read temperature not stated); AFM oligos: on ice, 2 min; conditions: protein: recombinant; label: 5' 6-FAM on strand 1; blunt
# [6] = target: T1, TFAM (no MTS); experiment: fluorescence anisotropy; +UVC; Hill n 1.90±0.12; FP: 25 mM HEPES, 10 mM Mg(OAc)2, 25 mM NaOAc, 75 mM KOAc, pH 7.5, 1 nM DNA, TFAM 0-15 nM diluted on ice (read temperature not stated); AFM oligos: on ice, 2 min; conditions: protein: recombinant; label: 5' 6-FAM on strand 1; blunt
# [7] = target: T1, TFAM (no MTS); experiment: fluorescence anisotropy; Hill n 3.09±0.11; FP: 25 mM HEPES, 10 mM Mg(OAc)2, 25 mM NaOAc, 75 mM KOAc, pH 7.5, 1 nM DNA, TFAM 0-15 nM diluted on ice (read temperature not stated); AFM oligos: on ice, 2 min; conditions: protein: recombinant; label: 5' 6-FAM on strand 1; blunt
# [8] = target: T1, TFAM (no MTS); experiment: fluorescence anisotropy; +UVC; Hill n 4.38±0.33; FP: 25 mM HEPES, 10 mM Mg(OAc)2, 25 mM NaOAc, 75 mM KOAc, pH 7.5, 1 nM DNA, TFAM 0-15 nM diluted on ice (read temperature not stated); AFM oligos: on ice, 2 min; conditions: protein: recombinant; label: 5' 6-FAM on strand 1; blunt
# [9] = target: T1, TFAM (no MTS); experiment: fluorescence anisotropy; Hill n 2.63±0.22; FP: 25 mM HEPES, 10 mM Mg(OAc)2, 25 mM NaOAc, 75 mM KOAc, pH 7.5, 1 nM DNA, TFAM 0-15 nM diluted on ice (read temperature not stated); AFM oligos: on ice, 2 min; conditions: protein: recombinant; label: 5' 6-FAM on strand 1; blunt
# [10] = target: T1, TFAM (no MTS); experiment: fluorescence anisotropy; Hill n 2.84±0.14; FP: 25 mM HEPES, 10 mM Mg(OAc)2, 25 mM NaOAc, 75 mM KOAc, pH 7.5, 1 nM DNA, TFAM 0-15 nM diluted on ice (read temperature not stated); AFM oligos: on ice, 2 min; conditions: protein: recombinant; label: 5' 6-FAM on strand 1; blunt
# [11] = target: T1, TFAM (no MTS); experiment: fluorescence anisotropy; +UVC; Hill n 2.27±0.26; FP: 25 mM HEPES, 10 mM Mg(OAc)2, 25 mM NaOAc, 75 mM KOAc, pH 7.5, 1 nM DNA, TFAM 0-15 nM diluted on ice (read temperature not stated); AFM oligos: on ice, 2 min; conditions: protein: recombinant; label: 5' 6-FAM on strand 1; blunt
# [12] = target: T1, TFAM (no MTS); experiment: fluorescence anisotropy; Hill n 3.85±0.49; FP: 25 mM HEPES, 10 mM Mg(OAc)2, 25 mM NaOAc, 75 mM KOAc, pH 7.5, 1 nM DNA, TFAM 0-15 nM diluted on ice (read temperature not stated); AFM oligos: on ice, 2 min; conditions: protein: recombinant; label: 5' 6-FAM on strand 1 (FP); blunt
# [13] = target: T1, TFAM (no MTS); experiment: fluorescence anisotropy; +UVC; Hill n 2.94±0.40; FP: 25 mM HEPES, 10 mM Mg(OAc)2, 25 mM NaOAc, 75 mM KOAc, pH 7.5, 1 nM DNA, TFAM 0-15 nM diluted on ice (read temperature not stated); AFM oligos: on ice, 2 min; conditions: protein: recombinant; label: 5' 6-FAM on strand 1; blunt
# [14] = target: T1, TFAM (no MTS); experiment: fluorescence anisotropy; Hill n 2.77±0.17; FP: 25 mM HEPES, 10 mM Mg(OAc)2, 25 mM NaOAc, 75 mM KOAc, pH 7.5, 1 nM DNA, TFAM 0-15 nM diluted on ice (read temperature not stated); AFM oligos: on ice, 2 min; conditions: protein: recombinant; label: 5' 6-FAM on strand 1; blunt
# [15] = target: T1, TFAM (no MTS); experiment: fluorescence anisotropy; +UVC; Hill n 2.18±0.14; FP: 25 mM HEPES, 10 mM Mg(OAc)2, 25 mM NaOAc, 75 mM KOAc, pH 7.5, 1 nM DNA, TFAM 0-15 nM diluted on ice (read temperature not stated); AFM oligos: on ice, 2 min; conditions: protein: recombinant; label: 5' 6-FAM on strand 1; blunt
# [16] = target: T1, TFAM (no MTS); experiment: fluorescence anisotropy; Hill n 2.64±0.22; FP: 25 mM HEPES, 10 mM Mg(OAc)2, 25 mM NaOAc, 75 mM KOAc, pH 7.5, 1 nM DNA, TFAM 0-15 nM diluted on ice (read temperature not stated); AFM oligos: on ice, 2 min; conditions: protein: recombinant; label: 5' 6-FAM on strand 1; blunt
# [17] = target: T1, TFAM (no MTS); experiment: fluorescence anisotropy; +UVC; Hill n 2.61±0.25; FP: 25 mM HEPES, 10 mM Mg(OAc)2, 25 mM NaOAc, 75 mM KOAc, pH 7.5, 1 nM DNA, TFAM 0-15 nM diluted on ice (read temperature not stated); AFM oligos: on ice, 2 min; conditions: protein: recombinant; label: 5' 6-FAM on strand 1; blunt
# [18] = target: T1, TFAM (no MTS); experiment: fluorescence anisotropy; Hill n 2.15±0.24; FP: 25 mM HEPES, 10 mM Mg(OAc)2, 25 mM NaOAc, 75 mM KOAc, pH 7.5, 1 nM DNA, TFAM 0-15 nM diluted on ice (read temperature not stated); AFM oligos: on ice, 2 min; conditions: protein: recombinant; label: 5' 6-FAM on strand 1; blunt
# [19] = target: T1, TFAM (no MTS); experiment: fluorescence anisotropy; +UVC; Hill n 1.81±0.05; FP: 25 mM HEPES, 10 mM Mg(OAc)2, 25 mM NaOAc, 75 mM KOAc, pH 7.5, 1 nM DNA, TFAM 0-15 nM diluted on ice (read temperature not stated); AFM oligos: on ice, 2 min; conditions: protein: recombinant; label: 5' 6-FAM on strand 1; blunt
binder,measurement,setting,value
B1,Kd,[1],4.33 ± 0.17 nM
B2,Kd,[2],6.36 ± 0.51 nM
B3,Kd,[3],4.95 ± 0.03 nM
B4,Kd,[4],5.36 ± 0.14 nM
B5,Kd,[5],3.41 ± 0.03 nM
B6,Kd,[6],6.12 ± 0.22 nM
B7,Kd,[7],5.69 ± 0.15 nM
B8,Kd,[8],7.25 ± 0.39 nM
B9,Kd,[9],4.53 ± 0.13 nM
B10,Kd,[10],5.2 ± 0.32 nM
B11,Kd,[11],7.63 ± 0.21 nM
B12,Kd,[12],7.56 ± 0.34 nM
B13,Kd,[13],7.66 ± 0.88 nM
B14,Kd,[14],3.94 ± 0.03 nM
B15,Kd,[15],4.87 ± 0.35 nM
B16,Kd,[16],4.36 ± 0.24 nM
B17,Kd,[17],6.24 ± 0.15 nM
B18,Kd,[18],4.24 ± 0.12 nM
B19,Kd,[19],7.79 ± 0.8 nM
